{"source": "patent US20250075249A1", "about": "(QUEENSLAND UNIVERSITY OF TECHNOLOGY, published 2025)", "experiment_in_all_cases": "cell-based or functional assay", "key": {"[1]": {"target": "Tre G104_P321 CaM chimera"}, "[2]": {"target": "FKBP-2CaM-Tre-FKBP fusion protein"}, "FKBP-2CaM-BLA-FKBP": {"target": "FKBP-2CaM-BLA-FKBP"}}}
{"binder": "KRRWKKNFIAVSAANRFKKISSSGAL (peptide, UniProt P07313 578-603, looked up)", "note": "[M13 calmodulin binding peptide]", "values": [{"measurement": "EC50 (read off the curve)", "setting": "[1]", "value": "~60", "unit": "nM"}]}
{"binder": "FRB-CaM-BP (fusion of FRB and a low affinity calmodulin binding peptide) (other) AHHHHHHSSGTRVAILWHEMWHEGLEEASRLYFGERNVKGMFEVLEPLHAMMERGPQTLKETSFNQAYGRDLMEAQEWCRKYMKSGNVKDLTQAWDLYYHVFRRISGGSGGSGSGSGGSGGKRRWKKNFIAVSAANR", "values": [{"measurement": "apparent Kd from titration with rapamycin (small molecule varied; 100 nM 2FKBP-Tre-2CaM, 200 nM FRB-CaM-BP; trehalase activity)", "setting": "[2]", "value": 89, "unit": "nM"}, {"measurement": "apparent Kd from titration with rapamycin (small molecule varied; 25 nM BLA-2CaM-2FKBP, 100 nM FRB-CaM-BP; β-lactamase activity)", "setting": "FKBP-2CaM-BLA-FKBP", "value": 11, "unit": "nM"}]}
